Measured values from the supplement of paper PMC9170038.

System: MS2 coat protein
Assay: apparent KD of MS2 coat protein; designed switch direction (-1 OFF switch, 1 ON switch): -1; higher = weaker reporter binding
How it was run: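 Stalled E. coli RNA polymerase transcribed designed RNA switches on Illumina chips, which were then titrated with SNAP-549-labelled MS2 coat protein, doubling from 0.7 or 1.5 nM to 3 µM. Steps lasted from 0.8–1.5 h at the lowest concentration to 10–20 min at the highest. The apparent KD is each design's median over clusters of curve-fitted normalised fluorescence.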

[1] = input ligand: microRNA oligo, concentration not stated
[2] = Eterna round: R95, input ligand: microRNA oligo, concentration not stated
[3] = Eterna round: R95, input ligand: FMN 200 uM
[4] = Eterna round: R95, input ligand: none

Sequence: CAGUACUGAGGAUAUACAUGAGGAUCACCCAUGUGAGAGAUACUAGUGAGGUCGAUUAGUAGAAGGCGGUACUG [Mat X3R4 m5] (Eterna round: R97, puzzle: Exclusion 3)
- apparent KD of MS2 coat protein (input ligand: FMN 200 uM): 0.306 µM
- apparent KD of MS2 coat protein (input ligand: none): 0.0408 µM

Sequence: AGCUGUGGCCGAGGAUAUCAAGACCGAUGGAAAACCAUCGGAACUCAACAUGAGGAUCACCCAUGUGAGAAGGCGGUCUCAGCA [Eli eng2 - 027] (Eterna round: R96, puzzle: Exclusion NG 2)
- apparent KD of MS2 coat protein (input ligand: FMN 200 uM): 0.0109 µM
- apparent KD of MS2 coat protein [1]: 0.00782 µM
- apparent KD of MS2 coat protein (input ligand: none): 0.0109 µM

Sequence: UUGUUGUAUGUAGGAUAUGCAUAUUAUUAUUAUGCAGAAGGACAUGAGGAUCACCCAUGUAUGUUAUUAUUAUAUGUUAUAUAU [Title] (Eterna round: R96, puzzle: Exclusion NG 1)
- apparent KD of MS2 coat protein [1]: 0.0213 µM

Sequence: AUUUUGUGAGGAUAUUAGUAGUAAAUAAAUAAAAUUAUUACUGAGAAGGCACAUGAGGAUCACCCAUGUUCCUA [Salish 062 v7] (Eterna round: R97, puzzle: Exclusion 4)
- apparent KD of MS2 coat protein (input ligand: FMN 200 uM): 0.193 µM
- apparent KD of MS2 coat protein (input ligand: none): 0.019 µM

Sequence: AGUCAGGCGGUAGGAUAUCCAAAUCGAGUGACCCUCUCAUAACAUGAGGAUCACCCAUGUCGGUGGGAGAAGGGCCGUACGGCG [JL ViennaUCT Atra mod] (Eterna round: R96, puzzle: Exclusion NG 2)
- apparent KD of MS2 coat protein (input ligand: FMN 200 uM): 0.108 µM
- apparent KD of MS2 coat protein [1]: 0.0538 µM
- apparent KD of MS2 coat protein (input ligand: none): 0.0478 µM

Sequence: UGCAGACGAGGAUAUAAACGAUAUAACAUGAGGAUCACCCAUGUACGAUCGAUAGAUCGUUUAGAAGGCGUCUGCU [E5/9-A3] (Eterna round: R97, puzzle: Exclusion 5)
- apparent KD of MS2 coat protein (input ligand: FMN 200 uM): 0.0145 µM
- apparent KD of MS2 coat protein (input ligand: none): 0.0141 µM

Sequence: AACCGGGCGGCAGGAUAUCCAGAUUAAUUGUGGUAGUCCUGACAUGAGGAUCACCCAUGUGAAAAGGAGAAGGGCCGGAAAUUA [Onona] (Eterna round: R96, puzzle: Exclusion NG 2)
- apparent KD of MS2 coat protein (input ligand: FMN 200 uM): 0.437 µM
- apparent KD of MS2 coat protein [1]: 0.0641 µM
- apparent KD of MS2 coat protein (input ligand: none): 0.122 µM

Sequence: ACAAGCUGGCUCGUCUUAUACAUGAGGAUCACCCAUGUUCUCAAGGUCUUAUGUACUGACACGAAAGUGUUAGUAAU [AK-miRNA-r3-2] (Eterna round: R97, puzzle: Sensor, turn-off variant 1)
- apparent KD of MS2 coat protein (input ligand: FMN 200 uM): 0.0298 µM
- apparent KD of MS2 coat protein (input ligand: none): 0.0302 µM

Sequence: GUCAUGUAAGGAUAUCUUACAUGUGACUUCGGUCACUGUCGAGAGAAGGUACAUGAGGAUCACCCAUGUUCGAC [Ex4-3: 53] (puzzle: Exclusion 4)
- apparent KD of MS2 coat protein [2]: 0.0156 µM

Sequence: AGAUGGCGAGGAUAUACAUGAGGAUCACCCAUGUGAGAAUAGAAAGUGAGGAAGAAAAGUAGAAGGCGCUGUCA [Mat - Exclusion 3 - Mod of Salish D22] (puzzle: Exclusion 3)
- apparent KD of MS2 coat protein [3]: 0.125 µM
- apparent KD of MS2 coat protein [2]: 0.0597 µM
- apparent KD of MS2 coat protein [4]: 0.0734 µM

Sequence: GGUUGGCGAGGAUAUACAUGAGGAUCACCCAUGUGAGAGAAAAAAGCGAGGAAGAAAAGUAGAAGGCGCUGACG [salish99_ex3_r3_027] (puzzle: Exclusion 3)
- apparent KD of MS2 coat protein [3]: 0.137 µM
- apparent KD of MS2 coat protein [2]: 0.043 µM
- apparent KD of MS2 coat protein [4]: 0.056 µM

Sequence: UUUUUACAUGAAGGAUAUACUUAACAUGAGGAUCACCCAUGUGGUGUUGUGAGUGAGUGAGUUUAGUAGAAGGUCAAUUAUUUU [JMF's solution 22] (Eterna round: R96, puzzle: Exclusion NG 2)
- apparent KD of MS2 coat protein (input ligand: FMN 200 uM): 0.556 µM
- apparent KD of MS2 coat protein [1]: 0.241 µM
- apparent KD of MS2 coat protein (input ligand: none): 0.314 µM

Sequence: GUCGAGUGAGGAUAUGGUGAGUAGUGCCUGAGCGCUGCUCACCAGAAGGCACAUGAGGAUCACCCAUGUAUAAC [Mat - Exclusion 4 - Mod of JL - D14] (puzzle: Exclusion 4)
- apparent KD of MS2 coat protein [2]: 0.0223 µM

Sequence: ACGUGGUGAGGAUAUGCACAAUACAAGAGUGUCAGAUCCGGACAUGAGGAUCACCCAUGUAGAAGGCACCCAAU [Eternabot (Original) Solution 10] (Eterna round: R97, puzzle: Exclusion 2)
- apparent KD of MS2 coat protein (input ligand: FMN 200 uM): 0.041 µM
- apparent KD of MS2 coat protein (input ligand: none): 0.0508 µM

Sequence: ACUCGUGCCCGAGGAUAUUACAGCAACCUGGCUUAAGAAGGCGGGACAUGAGGAUCACCCAUGUUCUGCGCAUCGGUCGUCAGA [Anzatete] (Eterna round: R96, puzzle: Exclusion NG 1)
- apparent KD of MS2 coat protein (input ligand: FMN 200 uM): 0.0188 µM
- apparent KD of MS2 coat protein [1]: 0.00936 µM
- apparent KD of MS2 coat protein (input ligand: none): 0.013 µM

Sequence: AAUUAUUAUUGAGGAUAUCGUAUUGAAACAAUACGAGAAGGCGGGAUAAACAUGAGGAUCACCCAUGUGAGCCUGAUGCUUGUG [Ex NG1 #41] (Eterna round: R96, puzzle: Exclusion NG 1)
- apparent KD of MS2 coat protein [1]: 0.0134 µM

Sequence: AGCCACAGAGGAUAUACAUACAUCCAGUAGUUAAGAAAACUACAUGAGGAUCACCCAUGUAGAAGGCUGUGGCA [Omei Ex2 BD B5] (Eterna round: R97, puzzle: Exclusion 2)
- apparent KD of MS2 coat protein (input ligand: FMN 200 uM): 0.507 µM
- apparent KD of MS2 coat protein (input ligand: none): 0.101 µM

Sequence: AAACCUGCCCAUGACCGCAAGCUUUUUACUUGUCUUACCACAUGAGGAUCACCCAUGUGACAUGGGCUCCUUAUAAA [Ceedbe] (puzzle: Sensor v3, turn-off variant 2)
- apparent KD of MS2 coat protein [3]: 0.0128 µM
- apparent KD of MS2 coat protein [2]: 0.00481 µM
- apparent KD of MS2 coat protein [4]: 0.0112 µM

Sequence: AAUUAUUUUUGAGGAUAUGGUGGUGAAACACCACCAGAAGGCGGAAUAAACAUGAGGAUCACCCAUGUGAGCCUGAUGCUUAUG [Ex NG1 #47] (Eterna round: R96, puzzle: Exclusion NG 1)
- apparent KD of MS2 coat protein [1]: 0.0175 µM

Sequence: GAAGUAAAUGCAGGAUAUACCCACACAUGAGGAUCACCCAUGUAGUCUACUACGGUGUUCUCACGGUAGAAGGGCACAGCCGGA [Eternabot solution 31] (Eterna round: R96, puzzle: Exclusion NG 2)
- apparent KD of MS2 coat protein (input ligand: FMN 200 uM): 0.377 µM
- apparent KD of MS2 coat protein [1]: 0.267 µM
- apparent KD of MS2 coat protein (input ligand: none): 0.256 µM

Sequence: AUAAUGUAAGGAUAUCAGUCGACUAGCCUCGGCUAGUCGACUGAGAAGGUACAUGAGGAUCACCCAUGUAGAUC [E4/19-A2] (Eterna round: R97, puzzle: Exclusion 4)
- apparent KD of MS2 coat protein (input ligand: FMN 200 uM): 0.352 µM
- apparent KD of MS2 coat protein (input ligand: none): 0.0478 µM

Sequence: UUUUAACAUGAGGAUCACCCAUGUGAGGAUAUCGUAUUUUUUAUUAAUAUUAAUAAAACGAGAAGGCACAUUUU [JMF 17] (Eterna round: R96, puzzle: Exclusion 1)
- apparent KD of MS2 coat protein (input ligand: FMN 200 uM): 0.0969 µM
- apparent KD of MS2 coat protein [1]: 0.0514 µM
- apparent KD of MS2 coat protein (input ligand: none): 0.0655 µM

Sequence: UACGAGCUAGGAUAUGCUUUGGGCUCGCUUUCCUUCGAUAAACUUGAGGAUCACCCAAGUAGAAGGAGCUUGUA [Mod 33 - Jieux - Exclusion 2] (Eterna round: R97, puzzle: Exclusion 2)
- apparent KD of MS2 coat protein (input ligand: FMN 200 uM): 0.0615 µM
- apparent KD of MS2 coat protein (input ligand: none): 0.0259 µM
